Patent US20180318440A1 (US Dept. of Health and Human Services, published 2018)

T1: human FGFR4 extracellular domain (FGFR4-ECD) (human, UniProt P22455 22-369)
T1 construct: extracellular domain; also called hFGFR4-ECD
T1 sequence (looked up): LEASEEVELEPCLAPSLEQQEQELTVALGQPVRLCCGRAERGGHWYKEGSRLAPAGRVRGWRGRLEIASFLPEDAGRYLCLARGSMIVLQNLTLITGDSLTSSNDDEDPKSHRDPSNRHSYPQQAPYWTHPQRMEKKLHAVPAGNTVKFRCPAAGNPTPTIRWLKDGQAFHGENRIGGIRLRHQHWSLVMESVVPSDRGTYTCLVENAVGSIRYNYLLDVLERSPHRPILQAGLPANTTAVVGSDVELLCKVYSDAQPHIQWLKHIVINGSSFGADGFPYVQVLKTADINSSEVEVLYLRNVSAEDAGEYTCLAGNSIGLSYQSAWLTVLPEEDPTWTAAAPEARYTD

B1: 29.2 rabbit anti-FGFR4 mAb (antibody, V domains shown)
VH: QSVKESEGRLVTPGTPLTLTCTVSGFSLSSNSVGWVRQAPGKGLEWIGIISSSGNRYYASWAKGRFTISKTSTTVDLKITSPTTEDTATYFCGGDPVSWYGDIWGPGTLVTVSS
VL: ELVLTQTPSSVSAAVGGTVTINCQSSPSLYKNNYLSWYQQKPGQPPKLLIYSASTLASGVPSRFKGSGSGTEYTLTISGVQCDDAATYYCLGGYSLSSDSPRAFGGGTEVVVK
B2: 57.1 rabbit anti-FGFR4 mAb (antibody, V domains shown)
VH: QSVKESEGRLVTPGTPLTLTCTVSGFSLSTYAMSWVRQAPEKGLEWIGIIYATAETYYATWARGRFTISKTSTTVDLKITSPATEDTATYFCARLNGDGSGTYAYDIWGPGTLVTVSS
VL: ELVMTQTPSPVSAAVGGTVTINCQASQSISSSYLSWYQQKPGQPPKLLIYKASTRPSGVSSRFKGSGSGTQFTLTISGVQCADAATYYCLYGYYIDSGADNSFGGGTEVVVK

Key:
[1] = target: T1, human FGFR4 extracellular domain …; assay: SPR (BIACORE), mAb immobilized on the chip, FGFR4-ECD in solution; column head prints 10^4, read as 10^-4 because that agrees with the printed kon and KD
Protocol: (§1) The affinity of two of the FGFR4-specific mAbs was tested using surface plasmon resonance.
(§2) The mAb was immobilized in a CMS chip and the binding of FGFR4 extracellular domain (FGFR4-ECD) was detected by measuring surface plasmon resonance in a BIACORE™ instrument

[2] = target: T1, human FGFR4 extracellular domain …; assay: SPR (BIACORE), mAb immobilized on the chip, FGFR4-ECD in solution
Protocol: as §1, §2

[3] = target: T1, human FGFR4 extracellular domain …; assay: SPR (BIACORE), mAb immobilized on the chip, FGFR4-ECD in solution; 'Observed KD'
Protocol: as §1, §2

Binder | koff [1] | kon [2] | Kd [3]
B1 | 0.00043 s⁻¹ | 25000 M⁻¹ s⁻¹ | 17 nM
B2 | 0.00018 s⁻¹ | 1700 M⁻¹ s⁻¹ | 110 nM
